In patent publication US20260008852A1 (CRYSTAL BIOSCIENCE, published 2026):
Substitutions are numbered along the chain they refer to.

T1: His-tagged mouse B7-H3 (mouse, UniProt Q8VE98 29-244, limits assumed)
T1 construct: Bought His-tagged protein coated on the ELISA plate; also called mu B7-H3; murine B7-H3
T1 sequence (looked up): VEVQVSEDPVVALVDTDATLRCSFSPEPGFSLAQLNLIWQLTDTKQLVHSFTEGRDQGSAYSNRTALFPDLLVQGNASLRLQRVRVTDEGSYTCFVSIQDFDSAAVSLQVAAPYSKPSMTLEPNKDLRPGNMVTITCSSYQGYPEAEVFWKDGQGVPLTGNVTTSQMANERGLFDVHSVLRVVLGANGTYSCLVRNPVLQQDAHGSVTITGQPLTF

T2: His-tagged human B7-H3 (human, UniProt Q5ZPR3-2 29-245, limits assumed)
T2 construct: Bought His-tagged protein coated on the ELISA plate; also called hu B7-H3; CD276
T2 sequence (looked up): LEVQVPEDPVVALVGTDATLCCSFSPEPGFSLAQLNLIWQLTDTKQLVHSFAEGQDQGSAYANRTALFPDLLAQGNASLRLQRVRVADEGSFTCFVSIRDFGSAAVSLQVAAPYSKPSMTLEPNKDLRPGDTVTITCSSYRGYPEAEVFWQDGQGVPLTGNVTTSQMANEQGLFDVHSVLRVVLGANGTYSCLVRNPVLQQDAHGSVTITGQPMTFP

T3: His-tagged cynomolgus monkey B7-H3 (cynomolgus monkey)
T3 chain: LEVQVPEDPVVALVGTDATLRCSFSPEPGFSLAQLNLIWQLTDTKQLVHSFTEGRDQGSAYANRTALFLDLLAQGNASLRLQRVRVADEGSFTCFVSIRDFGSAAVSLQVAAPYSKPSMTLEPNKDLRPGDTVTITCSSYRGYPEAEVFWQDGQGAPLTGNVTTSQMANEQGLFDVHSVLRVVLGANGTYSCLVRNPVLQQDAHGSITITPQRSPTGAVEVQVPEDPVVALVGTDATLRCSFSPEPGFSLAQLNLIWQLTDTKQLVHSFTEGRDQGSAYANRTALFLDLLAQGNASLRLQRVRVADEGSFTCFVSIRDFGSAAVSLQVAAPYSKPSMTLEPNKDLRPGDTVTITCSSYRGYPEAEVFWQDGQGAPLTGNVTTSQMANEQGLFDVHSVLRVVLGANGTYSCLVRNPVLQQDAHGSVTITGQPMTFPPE

T4: B7-H3 on B7-H3-expressing CHO cells (Genescript) (UniProt Q5ZPR3 29-534, limits assumed)
T4 construct: whole, on cells; also called CHO-K1/B7-H3; MFI B7-H3
T4 sequence (looked up): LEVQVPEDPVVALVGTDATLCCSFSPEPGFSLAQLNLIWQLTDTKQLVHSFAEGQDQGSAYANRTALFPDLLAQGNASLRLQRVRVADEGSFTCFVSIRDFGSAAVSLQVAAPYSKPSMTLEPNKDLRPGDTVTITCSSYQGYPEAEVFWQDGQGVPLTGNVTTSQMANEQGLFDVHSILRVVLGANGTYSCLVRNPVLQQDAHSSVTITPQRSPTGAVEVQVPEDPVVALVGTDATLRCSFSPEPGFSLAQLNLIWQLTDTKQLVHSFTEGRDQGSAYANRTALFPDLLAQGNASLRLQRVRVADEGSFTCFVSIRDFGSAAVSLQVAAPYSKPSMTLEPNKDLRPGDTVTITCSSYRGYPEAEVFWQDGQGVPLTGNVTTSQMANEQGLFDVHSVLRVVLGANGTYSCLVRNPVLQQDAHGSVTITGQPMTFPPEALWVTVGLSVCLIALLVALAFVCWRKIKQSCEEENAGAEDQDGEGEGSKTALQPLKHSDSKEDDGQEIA

B1: 40579p1.H11 (scFv, V domains shown)
VH: EVQLLESGGGLVQPGGSLRLSCAASGFTFDDYGMSWVRQAPGKGLEWVSAIRSKASSYATYYADSVKGRFTVSRDNSENTLYLQMNSLRAEDTAVYYCAKHRSNYYFMDVWGQGTTVTVSS
VL: EIVLTQSPGTLSLSPGERATLSCRASQSVGSDLAWYQQRPGQAPRLLIYAASSRATDIPDRFSGSGSGTDFTLTISSLQSEDFAVYYCQQYYSWPPLTFGGGTKVEIK
notes: Tested as scFv-Fc (Expi293 supernatant)
B2: 40511p1.2.A8 (scFv, V domains shown)
VH: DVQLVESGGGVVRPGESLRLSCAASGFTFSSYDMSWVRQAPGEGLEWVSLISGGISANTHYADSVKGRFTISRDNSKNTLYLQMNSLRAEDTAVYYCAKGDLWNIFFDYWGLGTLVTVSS
VL: EIVLTQSPATLSVSPGERATFSCRASQNVRSYLAWYQQKPGQAPRLLIFNTVTRATGIPDRFSGSGSGTDFTLTISSLEPEDFAVYYCQQYYDWPPLTFGGGTKVEIK
notes: as for B1
B3: 40579p1.C2 (scFv, V domains shown)
VH: EVQLLESGGDLVQPGGSLRLSCAASGFNFSSYWMSWVRQAPGKGLEWVSGISISYGGNAYYADSVKGRFTVSRDNSKNTLYLQMNSLRAEDTAVYYCGRDRSPYQYRSMDVWGQGTTVTVSS
VL: EIVLTQSPATLSVSPGERATFSCRASQTIGNKLAWYQQKPGQAPRLLIFSASTRATDIPDRFSGSGSGTDFTLTISSLQSEDFAVYYCQQYNNWPPLTFGGGTKVEIK
notes: as for B1
B4: 40511p1.1.H10 (scFv, V domains shown)
VH: DVQLVESGGGVVRPGESLRLSCAASGFTFSNYAMNWVRQAPGEGLEWVSRINYKGYNITYYADSVKGRFTISRDNSKNTLYLQMNSLRAEDTAVYYCAKSGSNSNNFFDYWGLGTLVTVSS
VL: B1 VL with T10N, D32Q, A34G, R39K, A50G, S53T, D57G, D70E, T72A, S93D
notes: as for B1
B5: 40579p1.D1 (scFv, V domains shown)
VH: B3 VH with D10G, N28T, S31D, W33Y, G50S, N58T, A59T, V71I, G98A, Y106C
VL: B1 VL with T10S, G30N, R39K, D57G, D60A, D70E, Y92N, S93N
notes: as for B1
B6: 40579p1.D8 (scFv, V domains shown)
VH: B3 VH with D10G, N28T, S31D, W33Y, G50S, N58T, A59T, V71I, G98A, Y106C
VL: EIVLTQSPGTLSLSPGERATLSCRASQSIRSDLAWYQQKPGQAPRLLIYNTVTRATGVPDRFSGSGSGTEFTLTISSLQSEDFAVYYCQQYNSWPPLTFGGGTKVEIK
notes: as for B1
B7: 40511p1.2.A4 (scFv, V domains shown)
VH: DVQLVESGGGVVRPGESLRLSCAASGFTFSSYAESWVRQAPGEGLEWVSIISGSGGNTFYADSVKGRFTISRDNSKNTLYLQMNSLRAEDTAVYYCARFAYGFFDYWGLGTLVTVSS
VL: B3 VL with A9G, F21L, I29V, N31S, F49Y, S50D, N92R
notes: as for B1
B8: 40511p1.1.H5 (scFv, V domains shown)
VH: B4 VH
VL: B6 VL with N50G, T51A, V52A, T53S, V58I, D60A, E81G
notes: as for B1
B9: 40511p1.2.G10 (scFv, V domains shown)
VH: B4 VH
VL: B1 VL with S28T, D32K, R39K, A50G, S53T, D70E, Y92I, S93N, T98S
notes: as for B1
B10: 40579p1.B8 (scFv, V domains shown)
VH: EVQLLESGGGLVQPGGSLRLSCAASGFTFSDYYMSWVRQAPGKGLEWVSGISMSSTIYYADSVKGRFTISRDNSKNTLYLQMNSLRAEDTAVYYCARHRSPYQYRSMDVWGQGTTVTVSS
VL: EIVLTQSPGTLSLSPGERATLSCRASQSVNSKLAWYQQKPGQPPSLLIYDASRRATGIPDRFSGSGSGTEFTLTISSLQSEDFAVYYCQQYNNWPPLTFGGGTKVEIK
notes: as for B1

Target: T1, His-tagged mouse B7-H3
Experiment: ELISA, coated His-tagged antigen

Binder	binding result
B1	no binding (tested: 1 ug/ml)
B2	no binding (tested: 1 ug/ml)

Target: T2, His-tagged human B7-H3
Experiment: ELISA OD450 on hu B7-H3 over OD450 on mu B7-H3

Binder	hu:mu ratio
B3	1.16
B4	4.64
B5	1.74
B6	2.1
B7	1.33
B8	2.25
B9	1.37
B10	1.12
B2	38.4

Target: T2, His-tagged human B7-H3
Experiment: ELISA, coated His-tagged antigen, scFv-Fc 1 ug/ml

Binder	ELISA OD450 @ 1 ug/ml
B3	2.12 OD450
B4	0.641 OD450
B5	0.492 OD450
B6	1.01 OD450
B7	2.06 OD450
B8	1.71 OD450
B9	1.98 OD450
B10	2.21 OD450
B2	2.11 OD450

Target: T1, His-tagged mouse B7-H3
Experiment: ELISA, coated His-tagged antigen, scFv-Fc 1 ug/ml

Binder	ELISA OD450 @ 1 ug/ml
B3	1.82 OD450
B1	0.051 OD450
B4	0.138 OD450
B5	0.283 OD450
B6	0.48 OD450
B7	1.55 OD450
B8	0.758 OD450
B9	1.45 OD450
B10	1.98 OD450
B2	0.055 OD450

Target: T3, His-tagged cynomolgus monkey B7-H3
Experiment: ELISA, coated His-tagged antigen, scFv-Fc 1 ug/ml

Binder	ELISA OD450 @ 1 ug/ml
B3	2.18 OD450
B1	0.769 OD450
B4	2.03 OD450
B5	1.33 OD450
B6	1.87 OD450
B7	2.3 OD450
B8	2.22 OD450
B9	2.37 OD450
B10	2.08 OD450
B2	2.34 OD450

Target: T4, B7-H3 on B7-H3-expressing CHO cells …
Experiment: flow cytometry, B7-H3-expressing CHO cells, 10 ug/ml
Method in brief: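 Antibodies at 10 μg/ml in PBS/1% BSA/0.01% NaN3 incubated 60 min on ice with ~1.5e5 cells; parental CHO cells as counterscreen. After washing, read by flow cytometry; values are mean fluorescent intensities (MFI).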

Binder	MFI @ 10 ug/ml
B3	75400 MFI
B1	11600 MFI
B4	22100 MFI
B5	36000 MFI
B6	40800 MFI
B7	82700 MFI
B8	62200 MFI
B9	78500 MFI
B10	85500 MFI
B2	25400 MFI
